Publication PMC9091212

Target: TGFβRII (UniProt P37173)
Test: anti-FLAG IP, TGFβRII western blot
Conditions: reference: wild-type TGFβRI-FLAG; sites Y182

TGFβRI (from UniProt P36897) Y182F
binding against the reference: weaker
